# Experimental data published in paper PMC4642984, “CRY Drives Cyclic CK2-Mediated BMAL1 Phosphorylation to Control the Mammalian Circadian Clock” (PLoS Biology, 2015).
# Molecular target: T1, ELucC-BMAL1 (mouse, UniProt Q9WTL8-2 1-625)
# T1 construct: full-length mouse BMAL1 cDNA ligated downstream of ELucC; also called ELucC-BMAL1-WT (full length); ELucC-mBMAL1; source: Cos7 cells, transfected, in living cells; not shown: ELucC (C-terminal fragment of Emerald luciferase), N-terminal, kept
# Assay: split reporter (BiFC, NanoBiT); Split Luc complementation in living Cos7 cells transfected with ELucN-CK2β and ELucC-BMAL1 (WT or mutant) together with pcDNA, Myc-HA-CRY1, Myc-CRY2 or FLAG-CRY1 (WT or Cd1-4); real-time bioluminescence, averaged peak values
# Details: partners not purified
# ELucN-CK2β, sequence (P67870 whole entry): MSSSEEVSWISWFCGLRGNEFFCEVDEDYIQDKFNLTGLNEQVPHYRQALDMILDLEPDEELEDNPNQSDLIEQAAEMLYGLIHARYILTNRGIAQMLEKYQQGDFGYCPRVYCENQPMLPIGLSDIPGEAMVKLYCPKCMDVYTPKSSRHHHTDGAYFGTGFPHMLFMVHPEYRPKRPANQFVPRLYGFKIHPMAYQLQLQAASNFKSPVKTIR
# T1 sequence (Q9WTL8 other isoform, or with tags, fused parts or gaps): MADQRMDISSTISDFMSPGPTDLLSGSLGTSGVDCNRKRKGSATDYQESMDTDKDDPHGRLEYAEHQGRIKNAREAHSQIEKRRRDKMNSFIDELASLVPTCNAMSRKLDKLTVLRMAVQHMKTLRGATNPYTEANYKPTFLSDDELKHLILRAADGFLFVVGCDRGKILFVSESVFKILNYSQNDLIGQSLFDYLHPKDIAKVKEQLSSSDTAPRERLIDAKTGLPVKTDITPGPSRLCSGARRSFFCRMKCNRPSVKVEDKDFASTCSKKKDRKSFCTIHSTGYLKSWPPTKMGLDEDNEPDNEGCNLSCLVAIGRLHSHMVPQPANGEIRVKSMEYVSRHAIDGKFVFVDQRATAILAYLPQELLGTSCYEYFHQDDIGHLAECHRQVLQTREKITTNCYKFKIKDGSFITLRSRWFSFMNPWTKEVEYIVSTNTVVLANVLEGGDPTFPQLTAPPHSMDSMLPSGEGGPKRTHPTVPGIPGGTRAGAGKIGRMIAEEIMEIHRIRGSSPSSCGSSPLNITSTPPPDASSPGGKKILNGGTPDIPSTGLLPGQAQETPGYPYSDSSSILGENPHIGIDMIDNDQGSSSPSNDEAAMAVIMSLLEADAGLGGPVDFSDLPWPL
binder,measurement,value
"ELucN-CK2β (natural protein, full-length human CK2β cDNA ligated downstream of ELucN; Vector backbone pcDNA4/V5-His (B) or pcDNA3.1; also called CMV-ELucN-CK2β; source: Cos7 or U-2OS cells, transfected, in living cells; not shown: ELucN (N-terminal fragment of Emerald luciferase), N-terminal, kept) not shown",fold increase of Split Luc bioluminescence in the presence of CRY proteins,~4 fold
same,fold increase of Split Luc bioluminescence on over-expression of Myc-tagged CRY1 or CRY2,~6 fold
